Experimental findings from patent publication US20110065645A1, “Compositions and Methods for Modulating Neuron Degeneration and Neuron Guidance” (The Regents of the University of California, priority 2009, published 2011) are described below.

In one assay the target is T1, Fzd3 (Mus musculus, UniProt Q61086).
T1 construct: expressed in transfected cells; host or cells: HEK293T
T1 sequence (Q61086 23-666): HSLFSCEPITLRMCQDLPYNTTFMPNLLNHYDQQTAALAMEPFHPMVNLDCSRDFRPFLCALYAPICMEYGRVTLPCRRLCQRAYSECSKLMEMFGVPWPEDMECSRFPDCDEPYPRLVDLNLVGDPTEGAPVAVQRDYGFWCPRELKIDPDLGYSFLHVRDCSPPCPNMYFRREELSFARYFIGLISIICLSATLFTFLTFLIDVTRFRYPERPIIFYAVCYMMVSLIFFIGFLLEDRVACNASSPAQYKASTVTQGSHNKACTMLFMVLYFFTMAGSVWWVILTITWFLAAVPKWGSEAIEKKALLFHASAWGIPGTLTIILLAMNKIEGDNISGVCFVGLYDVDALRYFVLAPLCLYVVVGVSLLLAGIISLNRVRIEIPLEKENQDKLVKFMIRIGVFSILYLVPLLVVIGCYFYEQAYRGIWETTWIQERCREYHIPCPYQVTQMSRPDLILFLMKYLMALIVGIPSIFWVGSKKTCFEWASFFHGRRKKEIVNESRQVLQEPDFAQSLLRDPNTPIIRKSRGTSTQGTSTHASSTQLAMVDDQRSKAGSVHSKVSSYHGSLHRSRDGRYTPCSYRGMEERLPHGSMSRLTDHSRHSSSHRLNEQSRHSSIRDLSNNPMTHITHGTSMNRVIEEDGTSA
Kind of assay: Surface biotinylation and avidin immunoprecipitation of Fzd3 in HEK293T cells. Format: cell-based. An excerpt: Dvl and Vgl have antagonistic functions on Fzd3 phosphorylation. […] We transfected Fzd3-mCherry in HEK293T cells then surface biotinylated and immunoprecipitated (IP) the surface molecules with strepavidin-conjugated beads to obtain membrane-localized proteins. […] We tested whether these two Fzd3 bands represent phosphorylation states of the Frizzled3 protein, one being phosphorylated/hyperphosphorylated Fzd3 (p-Fzd3) and the other non-phosphorylated Fzd3. […] Phosphorylation of Fzds has been shown previously in Xenopus oocytes
It has been proposed that Frizzled internalization is necessary for PCP signaling and phenotypes (Gagliardi et al., 2008; Yu et al., 2007). However, it has never been directly tested whether the cell surface level of Fzd, the Wnt-PCP receptor, changes upon Wnt addition. By using our surface biotinylation and immunoprecipitation with avidin, we show here, 15 minutes after Wnt addition, cell surface level of Fzd3-EGFP is diminished (FIG. 18C, Avidin IP, lane 3 anti-EGFP IB). […] This Fzd3 receptor oscillation from and to the membrane appeared to be a Wnt-Fzd specific effect because a non-Wnt binding receptor, such as the Insulin receptor stayed the same throughout the Wnt stimulation (FIG. 18C, Avidin IP, anti-Insulin Rβ IB). The Wnt-dependent Fzd3 oscillation is quantified in FIG. 18D (cross symboled line). […] In addition, PCP components appeared to effect this Wnt dependent oscillation of Fzd3 to and from the membrane. When Dvl1 is over expressed with Fzd3, we found within 30 minutes Fzd3 is unable to be internalized (FIG. 25B, lanes 5-7 and line). However, upon the introduction of Vangl2 into the transfection mix, Fzd3 oscillation is resumed (FIG. 25B, lanes 8-10 and circle symboled line).
Surface biotinylation and immunopreciptiation. 30 hours after transfection with the indicated constructs into HEK293T cells (FuGene, Roche), followed by 8-hour incubation in Optimem and subsequent bath application of recombinant Wnt5a (R&D Systems), surface proteins were subsequently labeled on ice with 1 mg/ml of Sulfo-NHS-LC-Biotin reagent (Pierce). The cell lysates were collect over a period of 30 minutes on ice in the following lysis buffer: 20 mM Tris pH7.6, 150 mM NaCl, 1% Triton, 0.1% SDS, 2.5 mM EDTA, 2.5 mM EGTA, protease Inhibitors (Roche). For the membrane immunoprecipitation, 600 ug of protein extracts were incubated overnight and retrieved by NeutrAvidin-coated Agarose beads (Pierce), the bound fraction was boiled and loaded on SDS-PAGE gel and analyzed by western blot analysis. To visualize the input amount 20 ug of total lysate was loaded, and for the Avidin IPs the total amount was loaded for western blot analysis. The following primary antibodies were used for the immunoblots: α-Frizzled3 (Wang et al., 2006), α-Vangl2 (Santa Cruz), α-mCherry/DsRed (Clontech), α-Jun (Cell Signaling), α-phospho-Jun (Cell Signaling), α-JNK (Cell Signaling), α-phospho-JNK (Cell Signaling), α-Flag (Sigma), α-GAPDH (Chemicon), α-Insulin Rβ (Santa Cruz).

The next assay relates to cortical neurons. Kind of assay: Cortical neuron death/survival assay under PKCζ inhibition (Tuj1, TUNEL, DAPI staining). Format: cell-based. The source says: 1. PKCζ is required for survival of cortical neurons. E15.5 cortical neurons were dissociated and cultured for 2 days in the presence of various concentrations of a cell membrane penetrating myristoylated peptide derived in the pseudosubstrate domain of PKC (FIGS. 12A-12D). This peptide is a specific inhibitor of PKCζ.
2. Axon degeneration procedes cell body death when PKC is inhibited. We examined the timing of axon degeneration and cell body death. […] The death induced by PKCζ inhibition is much faster than Aβ peptide induced neuronal death (FIG. 12D), probably because the PKCζ is an essential kinase and peptide inhibition causes instant death, whereas Aβ has to bind to cell surface receptor and trigger a signaling cascade to cause death, which requires a longer time.
3. Wnts are trophic factors for cortical neurons. […] Nuclear shrinkage (pyknosis) is a hallmark of neuronal cell death. Using DAPI staining, we can visualize the cell nuclei (FIG. 14B). […] Initial cortical axons and dendrite form and grow but axons start to disintegrate at E18.5 (FIG. 14D, from Wang et al 2006),^(13) (FIGS. 12F, 12K). Based on our preliminary results, we propose that Wnts are not only axon guidance molecules but also regulate neuronal survival and axon degeneration acting via PKC (FIG. 15).
3. Survival and cell death assays for screening of monoclonal antibodies and small compounds. We use the same cell death/survival assay as described in FIGS. 12A-14D and use microtubule staining to analyze the integrity of microtubules, DAPI stain to measure the size of cell nuclei and TUNEL staining to assay cell death. Microtubule disassembly is quantified by staining intensity of Tuj1 and Tau antibodies. The size of cell nuclei is binned into difference sizes and the distribution of the nuclei size is used as quantification of pyknosis (FIG. 14C).

B1: Wnt5a: recombinant Wnt5a protein (R&D Systems) (protein, UniProt P41221 62-380, looked up)
Protein Wnt-5a: IIGAQPLCSQLAGLSQGQKKLCHLYQDHMQYIGEGAKTGIKECQYQFRHRRWNCSTVDNTSVFGRVMQIGSRETAFTYAVSAAGVVNAMSRACREGELSTCGCSRAARPKDLPRDWLWGGCGDNIDYGYRFAKEFVDARERERIHAKGSYESARILMNLHNNEAGRRTVYNLADVACKCHGVSGSCSLKTCWLQLADFRKVGDALKEKYDSAAAMRLNSRGKLVQVNSRFNSPTTQDLVYIDPSPDYCVRNESTGSLGTQGRLCNKTSEGMDGCELMCCGRGYDQFKTVQTERCHCKFHWCCYVKCKKCTEIVDQFVCK
Consider B1, for which the “time of Fzd3-EGFP internalization” value in the assay with Fzd3 (high concentration (200 ng/ml), batch #1) is 15 minute and two hour; with Fzd3 (high concentration, batch #2) it was 15 min and 60 min; in the assay with Fzd3 (low concentration (100 ng/ml), batch #1), 30 min. In addition, the “cell surface levels of Fzd3” value with Fzd3 (upon the addition of Wnt5a) is “reduction of cell surface levels of Fzd3”. Also, the “axon degeneration / reduction of microtubule staining (Tuj1)” value in the assay on cortical neurons (5 um pseudosubstrate peptide) is “much less degeneration was seen”. In the assay with cortical neurons (10 um pseudosubstrate peptide), the “axons remaining judged by Tuj1 staining” value is recorded as “more axons still remain”. The “cell death induced by PKC inhibition” value in the assay on cortical neurons (pretreatment before pseudosubstrate peptide) is “block/reduce the cell death”.
